From article PMC11201429 come the findings set out here.

This series addresses thrombin (human alpha-thrombin not specified) (human, UniProt P00734;P00734 328-363;364-622). As to the kind of experiment: QCM-D; aptamer immobilised on streptavidin/biotin-PE/POPC bilayer; thrombin 1-25 ug/mL, shift 3 to 81 Hz; LOD 29 nM (not a Kd); PBS with CaCl2 and MgCl2 (concentrations not given), 0.1% BSA, 37 C; aptamer 0.5 uM loaded, heated to 95 C for 5 min and cooled to RT.

B1: NU172 thrombin aptamer (structured_DNA)
DNA: CGCCTAGGTTGGGTAGGGTGGTGGCG
modifications: 5'-biotin
B1: the binding result is listed as “binds”.
